B1: PTPRD (parent)
chain: ELDELLKEISRKRRSIRYGREVEL
B2: CHCHD3 (parent)
chain: YSGAYGASVSDEELKRRVAEELAL

Variants of: B1
Test: protein stability index of a GFP-peptide fusion (GPS, HEK-293T) (PSI 1-6); higher = more stable
Conditions: c terminus: a fixed tail appended
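Note: lentivirally expressed fusions sorted by FACS into six bins by GFP to DsRed ratio, PSI derived from sequencing read proportions per bin multiplied by bin number.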

Protein stability index of substitutions, site by site:
L5: V 2.86; T 3.58; P 3.82; Q 4.14; R 3.18; Y 3.44
E8: W 2.64; A 1.68; L 2.03; I 2.83; V 1.7; C 1.83
R17: Y 2.6; K 2.17; T 2.15; A 2.39; Q 2.68; E 2.64; N 2.75
I9: L 2.21; N 3.35; T 3.97
L24: F 2.55; E 2.77; V 2.92; A 2.69
E23: G 2.41; D 2.12; R 2.17; Y 1.92; W 2.09
S10: F 1.78; H 2.68; N 2.77; I 2.09; M 2.24; T 2.49
V22: D 2.96; W 2.39
R11: F 2.76
K12: E 2.32; Q 1.81; Y 1.55; I 1.66; G 2.26; M 2.11; T 2.56; H 2.03
Y18: Q 2.43; S 2.91; T 2.17; P 2.78; H 2.33; L 2.59
D3: H 2.48; P 2.26; E 2.51
L6: A 3.65; Y 2.71; E 4.28; M 2.68; I 1.93; F 2.07; R 3.76
E21: C 2.55; Y 2.15
E1: V 1.93; L 1.98; Q 2.41; P 3.07
S15: G 2.44; N 2.65; W 1.59; I 2.29; H 2.89; R 2.22
R13: L 1.46; S 3.25
I16: H 2.37; K 1.9; W 1.8; V 2.35
G19: F 1.71; S 2.04; N 2.47; D 2.22; R 1.96; C 2.7; Y 2.1; T 2.37
E4: A 3.26; Y 1.27; L 2.19; T 1.88
K7: D 3.25; R 2.27; E 3.1; T 3.09; A 2.83; I 2.27; G 2.54
R20: E 2.71; D 3.33; P 2.49; C 2.01
L2: W 2.99; F 2.49; A 3.79; G 3.58
R14: W 1.73; E 2.73; N 2.1; T 2.38; S 2.9; M 2.03

Variants of: B2
Test: as above
Conditions: c terminus: a fixed tail appended

Protein stability index of substitutions, site by site:
A7: P 2.94; D 4.27; I 2.71; C 1.72; K 2.38; Y 2.61; M 2.94; S 3.48; T 2.99; F 2.58; R 2.77; H 2.98; N 3.61; E 4.3; Q 3.04; G 3.43; W 1.39; L 2.42; V 2.56
Y5: I 4.44; M 3.73; P 4.88; N 4.55; A 5.09; C 2.75; F 1.33; E 5.32; S 4.99; K 4.14; Q 5.28; G 4.92; T 5.01; D 5.3; R 4.59; V 4.95; W 2.4; H 4.02; L 4.86
A4: G 2.27; K 2.63; V 3.03; L 2.7; D 4.64; P 4.24; I 3.21; R 3.03; N 2.97; E 3.31; Q 2.61; S 3.39; Y 2.15; H 2.84; W 2.11; T 3.66; F 1.95; C 2.64; M 2.59
Y1: R 4.63; F 2.71; M 5.2; I 4.74; C 3.63; G 4.87; Q 5.07; H 4.99; A 4.93; D 5.4; K 3.73; T 4.34; S 5.45; L 4.87; N 4.71
S2: Q 3.46; C 2.48; K 4.35; V 1.9; D 5.1; L 2.88; M 3.24; Y 4.05; W 4.26; P 3.22; F 3.45; N 3.63; R 4.62; E 4.78; G 3.62; T 2.27; I 2.17; H 1.38
D11: H 2.08; A 2.79; V 3.23; I 2.29; T 2.24; R 2.24; G 2.01; W 2.31; E 1.55; C 2.39; Q 2.34; L 2.57; S 1.86; P 1.7; N 2.37; K 2.49; M 3.01; F 2.27
G6: Y 1.9; V 2.48; Q 2.81; S 2.13; E 4.05; I 2.12; H 2.3; R 2.42; D 4.67; L 2.06; C 2.22; M 2.4; N 3.36; W 1.64; F 2.09; A 1.84; K 2.06; T 2.11; P 2.48
S10: L 2.8; Y 2.14; Q 2.72; E 3.58; N 2.4; H 2.98; K 2.46; P 2.6; G 2.51; V 2.92; I 2.69; T 2.71; D 3.35; W 1.89; R 2.66; M 2.86; F 2.64
E12: Q 2.09; D 2.99; T 2.71; N 2.4; Y 3.02; S 2.09; C 2.2; I 2.92; M 2.39; W 3.11; F 2.09; A 2.29; G 1.82; V 2.37; R 2.59; P 3.73; L 2.17; H 2.24; K 2.53
G3: I 4.29; K 3.17; A 2.94; H 4.1; E 4.87; Q 3.96; T 2.9; L 4.33; D 5.41; F 3.05; N 4.18; P 3.78; R 3.56; S 3.37; V 3.98; Y 3.4; M 3.81; C 2.73; W 2.63
V9: W 2.71; Y 1.94; E 4.28; N 3.35; A 3.3; I 2.95; K 2.57; M 2.7; Q 3.18; P 3.13; S 3.07; R 2.19; G 3.06; H 2.77; F 2.67; T 2.19
E13: A 2.61; C 2.33; D 2.9
S8: L 1.42; E 3.77; H 2.98; T 2.01; Q 3.02; I 2.08; R 2.88; V 1.78; C 2.04; W 4.28; D 4.18; M 3.52; Y 2.07; K 3.2; F 2; N 3.22; P 2.07; G 3.1
